Reference: patent publication US7115722
Where “and” joins values, the source holds several entries; their conditions need not be identical. Equal values may be shown once.

Key:
[1] = target: C-antigen (human); assay: flow cytometry, SK-BR-3 cells, 5 mg/L
[2] = target: C-antigen (human); assay: cell-fixed ELISA, A-375 cells, 2.5 µg/mL
[3] = target: C-antigen (human); assay: radioligand binding to SKMG1 cells
[4] = target: C-antigen (human); assay: flow cytometry, live SK-BR-3 cells, 200 µg/mL
[5] = target: C-antigen (human); assay: cell-fixed ELISA, PC-3 cells, 2.5 µg/mL
[6] = target: C-antigen (human); assay: flow cytometry, live RAMOS cells, 100 µg/mL
[7] = target: C-antigen (human); assay: flow cytometry, live H9 cells, 100 µg/mL
[8] = target: C-antigen (human); assay: cell-fixed ELISA, BT-20 cells, 2.5 µg/mL
[9] = target: C-antigen (human); assay: cell-fixed ELISA, U-2 OS cells, 2.5 µg/mL
[10] = target: C-antigen (human); assay: cell-fixed ELISA, RAMOS cells, 2.5 µg/mL
[11] = target: C-antigen (human); assay: flow cytometry, live MB-468 cells, 200 µg/mL
[12] = target: C-antigen (human); assay: cell-fixed ELISA, SK-Co-1 cells, 2.5 µg/mL
[13] = target: C-antigen (human); assay: cell-fixed ELISA, HT-29 cells, 2.5 µg/mL
[14] = target: C-antigen (human); assay: flow cytometry, live CCRF-CEM cells, 100 µg/mL
[15] = target: C-antigen (human); assay: flow cytometry, live HT-29 cells, 200 µg/mL
[16] = target: C-antigen (human); assay: cell-fixed ELISA, SW-9000 cells, 2.5 µg/mL
[17] = target: C-antigen (human); assay: flow cytometry, live CA-46 cells, 200 µg/mL
[18] = target: C-antigen (human); assay: cell-fixed ELISA, SK-MEL-5 cells, 2.5 µg/mL
[19] = target: C-antigen (human); assay: cell-fixed ELISA, DAUDI cells, 2.5 µg/mL
[20] = target: C-antigen (human); assay: cell-fixed ELISA, CEM cells, 2.5 µg/mL
[21] = target: C-antigen (human); assay: cell-fixed ELISA, HEP-2 cells, 2.5 µg/mL
[22] = target: C-antigen (human); assay: cell-fixed ELISA, NCI-H82 cells, 2.5 µg/mL
[23] = target: C-antigen (human); assay: cell-fixed ELISA, SK-LU-1 cells, 2.5 µg/mL
[24] = target: C-antigen (human); assay: cell-fixed ELISA, U-118MG cells, 2.5 µg/mL
[25] = target: C-antigen (human); assay: flow cytometry, live RAMOS cells, 200 µg/mL
[26] = target: C-antigen (human); assay: flow cytometry, live WI-38 human diploid lung cells, 100 µg/mL
[27] = target: C-antigen (human); assay: flow cytometry, live SKMG-1 cells, 100 µg/mL
[28] = target: C-antigen (human); assay: flow cytometry, live LS-174T cells, 200 µg/mL
[29] = target: C-antigen (human); assay: flow cytometry, live SKMG-1 cells, 100 µg/mL (second row)
[30] = target: C-antigen (human); assay: cell-fixed ELISA, D-54MG cells, 2.5 µg/mL
[31] = target: C-antigen (human); assay: cell-fixed ELISA, DU-145 cells, 2.5 µg/mL
[32] = target: C-antigen (human); assay: flow cytometry, live CCRF-CEM cells, 200 µg/mL
[33] = target: C-antigen (human); assay: cell-fixed ELISA, K-562 cells, 2.5 µg/mL
[34] = target: C-antigen (human); assay: cell-fixed ELISA, SKMG-1 cells, 2.5 µg/mL
[35] = target: C-antigen (human); assay: cell-fixed ELISA, BT-474 cells, 2.5 µg/mL
[36] = target: C-antigen (human); assay: radioligand binding to A-375 cells
[37] = target: C-antigen (human); assay: cell-fixed ELISA, LS17T cells, 2.5 µg/mL
[38] = target: C-antigen (human); assay: cell-fixed ELISA, SK-BR-3 cells, 2.5 µg/mL
[39] = target: C-antigen (human); assay: cell-fixed ELISA, SK-OV-3 cells, 2.5 µg/mL
[40] = target: C-antigen (human); assay: cell-fixed ELISA, tumour cell lines, against BGA scFv
[41] = target: C-antigen (human); assay: flow cytometry, live H9 cells, 200 µg/mL
[42] = target: C-antigen (human); assay: cell-fixed ELISA, SK-MEL-28 cells, 2.5 µg/mL
[43] = target: C-antigen (human); assay: cell-fixed ELISA, SK-N-MC cells, 2.5 µg/mL
[44] = target: C-antigen (human); assay: flow cytometry, live A-375 cells, 200 µg/mL
[45] = target: C-antigen (human); assay: flow cytometry, live H9 cells, 100 µg/mL; remark: listed apart in the source
[46] = target: C-antigen (human); assay: radioligand binding to LS174T cells
[47] = target: C-antigen (human); assay: cell-fixed ELISA, SAOS-2 cells, 2.5 µg/mL
[48] = target: C-antigen (human); assay: cell-fixed ELISA, A-427 cells, 2.5 µg/mL
[49] = target: C-antigen (human); assay: flow cytometry, live CA-46 cells, 100 µg/mL
[50] = target: C-antigen (human); assay: cell-fixed ELISA, MB-468 cells, 2.5 µg/mL
[51] = target: C-antigen (human); assay: cell-fixed ELISA, NCI-69 cells, 2.5 µg/mL
[52] = target: C-antigen (human); assay: cell-fixed ELISA, CA-46 cells, 2.5 µg/mL
[53] = target: C-antigen (human); assay: cell-fixed ELISA, T47D cells, 2.5 µg/mL
[54] = target: C-antigen (human); assay: cell-fixed ELISA, T-24 cells, 2.5 µg/mL
[55] = target: C-antigen (human); assay: flow cytometry, SK-BR-3 cells, 3.9 mg/L IgG1
[56] = target: C-antigen (human); assay: flow cytometry, SK-BR-3 cells, 2 mg/L IgG1
[57] = target: C-antigen (human); assay: flow cytometry, SK-BR-3 cells, 3.3 mg/L IgG1
[58] = target: C-antigen (human); assay: flow cytometry, SK-BR-3 cells, 4.0 mg/L IgG1

Molecule: Control IgG1 (antibody)
- Mean Fluorescence (MF) [1]: 169

B1: H11-scFv (scFv)
scFv: DIVLTQSPGTLSLSPGERATLSCRASQSVSSSYLAWYQQKPGQAPRLLIYGASTRATGMPDRFSGSGSGTDFTLTISRLEPEDFAVYYCQQYGSSPQTPQITFGGGTKVEIKRTVAAPSVSGGGGSGGGGSGGGGSQVQLVESGGGVVQPGRSLRLSCAASGFPFRSFAMHWVRQALGKGLEWVAVISYDGSTKYYADSVKGRFTISRDTSKNTVYLKMNSLRTEDTAVYYCARDQSLLGDYDHYYGLDVWGKGTTVTVSSGSEQKLISEEDLNHHHHH
- O.D. at 450 nm [2]: 0.97 O.D.
- Ka [3]: 1.4e+09 M⁻¹
- binding sites/cell (binding sites/cell) [3]: 5000
- % Positive Cells [4]: 36%
- Mean Fluorescence [4]: 233
- O.D. at 450 nm [5]: 0.36 O.D.
- % FLUORESCENCE […] [6]: 87%
- % Positive Cells [6]: 67%
- Mean Fluorescence [6]: 316
- % Positive Cells [7]: 13%
- Mean Fluorescence [7]: 145
- O.D. at 450 nm [8]: 0.54 O.D.
- O.D. at 450 nm [9]: 0.93 O.D.
- O.D. at 450 nm [10]: 1.3 O.D.
- % Positive Cells [11]: 11%
- Mean Fluorescence [11]: 156
- O.D. at 450 nm [12]: 0.56 O.D.
- O.D. at 450 nm [13]: 0.53 O.D.
- % FLUORESCENCE […] [14]: 52%
- % Positive Cells [14]: 38%
- Mean Fluorescence [14]: 242
- % Positive Cells [15]: 18%
- Mean Fluorescence [15]: 179
- O.D. at 450 nm [16]: 0.41 O.D.
- % FLUORESCENCE […] [17]: 108%
- % Positive Cells [17]: 76%
- Mean Fluorescence [17]: 262
- O.D. at 450 nm [18]: 0.61 O.D.
- O.D. at 450 nm [19]: 1.38 O.D.
- O.D. at 450 nm [20]: 1.4 O.D.
- O.D. at 450 nm [21]: 0.08 O.D.
- O.D. at 450 nm [22]: 0.44 O.D.
- O.D. at 450 nm [23]: 0.45 O.D.
- O.D. at 450 nm [24]: 0.47 O.D.
- % FLUORESCENCE […] [25]: 143%
- % Positive Cells [25]: 95%
- Mean Fluorescence [25]: 423
- % Positive Cells [26]: 15%
- Mean Fluorescence [26]: 255
- % Positive Cells [27]: 31%
- Mean Fluorescence [27]: 206
- % Positive Cells [28]: 37%
- Mean Fluorescence [28]: 233
- % Positive Cells [29]: 27%
- Mean Fluorescence [29]: 224
- O.D. at 450 nm [30]: 0.5 O.D.
- O.D. at 450 nm [31]: 0.42 O.D.
- % FLUORESCENCE […] [32]: 35%
- % Positive Cells [32]: 34%
- Mean Fluorescence [32]: 231
- O.D. at 450 nm [33]: 0.65 O.D.
- O.D. at 450 nm [34]: 0.56 O.D.
- O.D. at 450 nm [35]: 0.6 O.D.
- Ka [36]: 3.6e+08 M⁻¹
- binding sites/cell (binding sites/cell) [36]: 24000
- O.D. at 450 nm [37]: 0.57 O.D.
- O.D. at 450 nm [38]: 0.58 O.D.
- O.D. at 450 nm [39]: 0.77 O.D.
- affinity relative to control scFv [40]: 8 to 50 fold
- % FLUORESCENCE […] [41]: 20%
- % Positive Cells [41]: 13%
- Mean Fluorescence [41]: 186
- O.D. at 450 nm [42]: 0.71 O.D.
- O.D. at 450 nm [43]: 0.5 O.D.
- % Positive Cells [44]: 80% and 76%
- Mean Fluorescence [44]: 207 and 235
- % FLUORESCENCE […] [45]: 15%
- % Positive Cells [45]: 9%
- Mean Fluorescence [45]: 171
- Ka [46]: 3e+08 M⁻¹
- O.D. at 450 nm [47]: 0.88 O.D.
- O.D. at 450 nm [48]: 0.4 O.D.
- % FLUORESCENCE […] [49]: 66%
- % Positive Cells [49]: 58%
- Mean Fluorescence [49]: 221
- O.D. at 450 nm [50]: 0.65 O.D.
- O.D. at 450 nm [51]: 0.44 O.D.
- O.D. at 450 nm [52]: 1.2 O.D.
- O.D. at 450 nm [53]: 0.64 O.D.
- O.D. at 450 nm [54]: 0.97 O.D.

B2: recombinantly produced H11 IgG1 (antibody)
VH: QAIVTLNTQAMHPTRWELSHMVDLQAAALVISSFITEHRGLTMEFGLSWVFLVALLRGIQCQVQLVESGGGVVQPGRSLRLSCAASGFPFRSFAMHWVRQALGKGLEWVAVISYDGSTKYYADSVKGRFTISRDTSKNTVYLKMNRLRTEDTAVFYLCERQSLLGDYDHYYGLDAWGKG
VL: LEMDMEFQAQLLFLLLLWLPDITGDIVLTQSPGTLSLSPGERATLSCRASQSVSSSYLAWYQQKPGQAPRLLIYGASTRATGMPDRFSGSGSGTDFTLTISRLEPEDFAVYYCQQYGSSPQTPQITFGGGTKVEIKRTVAAPSVFIFPPS
- % Increase of MF above IgG1 control [55]: 18%
- Mean Fluorescence (MF) [55]: 200
- % Increase of MF above IgG1 control [56]: 2% and 9%
- Mean Fluorescence (MF) [56]: 172 and 184
- % Increase of MF above IgG1 control [57]: 14% and 10%
- Mean Fluorescence (MF) [57]: 192 and 186
- % Increase of MF above IgG1 control [58]: 33%
- Mean Fluorescence (MF) [58]: 224
